These results are taken from patent US8889621B2, “Inhibiting binding of FGF23 to the binary FGFR-Klotho complex for the treatment of hypophosphatemia” (New York University, priority 2009, dated 2014).

The target in this experiment is T1, binary FGFR1c-Klotho complex (UniProt O35082+P11362).
T1 construct: The ectodomain of murine Klotho (A35 to K982) was purified from culture media; FLAG (C); made in house; host or cells: E. coli (FGFR1c, FGF23); HEK293 (Klotho ectodomain)
T1 sequence (P11362 142-365): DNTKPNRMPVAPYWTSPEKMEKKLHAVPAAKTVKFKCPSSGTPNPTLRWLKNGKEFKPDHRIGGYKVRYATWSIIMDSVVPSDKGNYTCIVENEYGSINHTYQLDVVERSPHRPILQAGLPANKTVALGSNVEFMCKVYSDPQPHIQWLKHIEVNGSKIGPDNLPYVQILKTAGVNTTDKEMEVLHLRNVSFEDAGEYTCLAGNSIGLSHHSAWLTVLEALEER
T1 sequence (O35082 35-982): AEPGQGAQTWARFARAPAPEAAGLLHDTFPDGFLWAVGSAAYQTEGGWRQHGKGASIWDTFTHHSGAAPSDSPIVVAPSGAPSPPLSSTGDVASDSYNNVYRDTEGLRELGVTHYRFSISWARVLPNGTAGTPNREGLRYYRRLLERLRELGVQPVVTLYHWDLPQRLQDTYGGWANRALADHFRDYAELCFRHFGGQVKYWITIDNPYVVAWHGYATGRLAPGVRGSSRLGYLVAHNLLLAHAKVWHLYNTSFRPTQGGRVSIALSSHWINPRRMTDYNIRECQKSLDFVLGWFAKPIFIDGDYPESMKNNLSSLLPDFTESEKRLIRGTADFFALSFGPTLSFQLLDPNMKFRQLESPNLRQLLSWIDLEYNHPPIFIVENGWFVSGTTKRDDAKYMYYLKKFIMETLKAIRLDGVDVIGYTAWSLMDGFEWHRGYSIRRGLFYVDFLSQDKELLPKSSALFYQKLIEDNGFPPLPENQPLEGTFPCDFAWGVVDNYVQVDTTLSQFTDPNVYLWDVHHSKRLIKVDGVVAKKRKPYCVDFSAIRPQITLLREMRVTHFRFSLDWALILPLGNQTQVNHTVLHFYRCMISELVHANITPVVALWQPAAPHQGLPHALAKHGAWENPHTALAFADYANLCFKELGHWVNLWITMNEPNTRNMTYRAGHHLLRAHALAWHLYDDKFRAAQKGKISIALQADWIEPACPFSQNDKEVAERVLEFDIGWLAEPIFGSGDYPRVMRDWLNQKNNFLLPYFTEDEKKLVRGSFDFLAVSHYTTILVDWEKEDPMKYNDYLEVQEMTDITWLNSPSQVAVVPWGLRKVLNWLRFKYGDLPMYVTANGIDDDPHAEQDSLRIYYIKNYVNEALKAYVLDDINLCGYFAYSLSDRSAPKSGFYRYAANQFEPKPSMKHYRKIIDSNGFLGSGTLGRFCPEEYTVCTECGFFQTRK
Briefly: SPR: binary FGFR1c-Klotho complex passed over immobilized FGF23 protein/peptide. It is filed as binding, human FGFR1c, murine Klotho. Here is the method: A variety of interaction or binding assays can be used to determine that an agent specifically binds the binary FGFR-Klotho complex, such as the SPR interaction analysis described below. One aspect of the present invention utilizes SPR analysis of FGF23 protein/peptide binding to the binary FGFR-Klotho complex. The SPR analysis involved FGF23 protein/peptide immobilization by amine coupling on flow channels of a chip. Proteins were injected over the chip at a flow rate of 50 μl min^−1, and at the end of each protein injection (180 s), HBS-EP buffer (10 mM HEPES-NaOH, pH 7.4, 150 mM NaCl, 3 mM EDTA, 0.005% (v/v) polysorbate 20; 50 μl min^−1) was flowed over the chip to monitor dissociation for 180 s. The chip surface was then regenerated by injecting 50 μl of 2.0 M NaCl in 10 mM sodium acetate, pH 4.5. […] For each protein injection over a FGF23 protein/peptide chip, the nonspecific responses from the FHF1B control flow channel were subtracted from the responses recorded for the flow channel onto which FGF23 protein/peptide was immobilized. […] As a control, competition of FGF23 C-terminal tail peptide in solution with immobilized FGF23 C-terminal tail peptide for binding to the binary FGFR1c-Klotho complex was analyzed. […]

B1: FGF23^28-251: human FGF23 (A28 to I251), bioactive full-length ligand expressed in E. coli (protein, listed as Homo sapiens)
chain: ASPLLGSSWGGLIHLYTATARNSYHLQIHKNGHVDGAPHQTIYSALMIRSEDAGFVVITGVMSRRYLCMDFRGNIFGSHYFDPENCRFQHQTLENGYDVYHSPQYHFLVSLGRAKRAFLPGMNPPPYSQFLSRRNEIPLIHFNTPIPRRHTRSAEDDSERDPLNVLKPRARMTPAPASCSQELPSAEDNSPMASDPLGVVRGGRVNTHAGGTGPEGCRPFAKFI
For the molecule B1, the “binding to the binary FGFR1c-Klotho complex” value is “bound to the FGFR1c-Klotho complex”.

B2: FGF23^180-251: 72-amino acid C-terminal tail of human FGF23 (S180 to I251), expressed in E. coli (protein, listed as Homo sapiens)
chain: SAEDDSERDPLNVLKPRARMTPAPASCSQELPSAEDNSPMASDPLGVVRGGRVNTHAGGTGPEGCRPFAKFI
B2: the “binding to the binary FGFR1c-Klotho complex” value is given as “avidly bound”.
